This note sets out measurements from patent US20200339648A1 (University of Washington, published 2020).

Test [1] has as its target T1, mouse IL-2Rβγc on murine cells (CTLL-2 T cells, primary CD4+ T cells) (mouse, UniProt P16297 27-539; P34902 23-369).
T1 sequence (looked up) 1: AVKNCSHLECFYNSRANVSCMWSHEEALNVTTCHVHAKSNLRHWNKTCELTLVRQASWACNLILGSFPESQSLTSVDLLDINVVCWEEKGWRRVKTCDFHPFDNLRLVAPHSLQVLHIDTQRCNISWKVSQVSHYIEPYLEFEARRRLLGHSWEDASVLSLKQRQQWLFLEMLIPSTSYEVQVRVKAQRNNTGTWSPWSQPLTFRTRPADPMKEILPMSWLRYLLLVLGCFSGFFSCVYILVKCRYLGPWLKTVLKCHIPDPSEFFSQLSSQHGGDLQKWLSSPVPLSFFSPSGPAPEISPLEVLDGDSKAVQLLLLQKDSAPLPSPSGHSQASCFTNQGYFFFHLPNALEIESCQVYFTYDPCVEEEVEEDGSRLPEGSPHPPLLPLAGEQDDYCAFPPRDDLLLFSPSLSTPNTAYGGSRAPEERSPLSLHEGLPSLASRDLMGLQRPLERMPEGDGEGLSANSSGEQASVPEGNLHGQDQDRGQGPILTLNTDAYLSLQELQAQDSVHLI
T1 sequence (looked up) 2: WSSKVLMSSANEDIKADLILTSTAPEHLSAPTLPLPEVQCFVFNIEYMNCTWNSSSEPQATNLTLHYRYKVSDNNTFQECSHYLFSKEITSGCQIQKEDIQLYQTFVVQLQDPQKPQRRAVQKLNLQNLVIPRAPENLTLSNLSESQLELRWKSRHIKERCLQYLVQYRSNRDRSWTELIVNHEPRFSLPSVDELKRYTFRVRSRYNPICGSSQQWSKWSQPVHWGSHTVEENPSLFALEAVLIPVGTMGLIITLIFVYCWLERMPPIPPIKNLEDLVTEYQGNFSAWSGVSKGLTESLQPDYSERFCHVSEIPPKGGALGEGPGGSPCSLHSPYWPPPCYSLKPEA
Put plainly: cell-based or functional assay.

Test [2] has as its target T2, human IL-2Rβγc on human cells (YT-1 NK cells) (human, UniProt P14784 27-551; P31785 23-369).
T2 sequence (looked up) 1: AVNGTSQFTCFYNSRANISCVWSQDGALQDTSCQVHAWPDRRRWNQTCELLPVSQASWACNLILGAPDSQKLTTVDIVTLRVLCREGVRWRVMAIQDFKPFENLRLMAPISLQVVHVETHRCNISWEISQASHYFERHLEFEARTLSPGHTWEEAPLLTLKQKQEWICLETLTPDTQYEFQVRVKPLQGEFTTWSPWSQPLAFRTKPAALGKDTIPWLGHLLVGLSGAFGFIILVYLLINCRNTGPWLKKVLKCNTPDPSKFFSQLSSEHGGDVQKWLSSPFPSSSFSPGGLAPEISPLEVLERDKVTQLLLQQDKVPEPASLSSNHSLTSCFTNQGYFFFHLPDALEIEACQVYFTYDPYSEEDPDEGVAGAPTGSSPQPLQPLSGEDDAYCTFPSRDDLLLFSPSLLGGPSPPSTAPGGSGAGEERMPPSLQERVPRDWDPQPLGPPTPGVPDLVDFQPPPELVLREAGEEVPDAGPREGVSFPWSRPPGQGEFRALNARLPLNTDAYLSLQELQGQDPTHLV
T2 sequence (looked up) 2: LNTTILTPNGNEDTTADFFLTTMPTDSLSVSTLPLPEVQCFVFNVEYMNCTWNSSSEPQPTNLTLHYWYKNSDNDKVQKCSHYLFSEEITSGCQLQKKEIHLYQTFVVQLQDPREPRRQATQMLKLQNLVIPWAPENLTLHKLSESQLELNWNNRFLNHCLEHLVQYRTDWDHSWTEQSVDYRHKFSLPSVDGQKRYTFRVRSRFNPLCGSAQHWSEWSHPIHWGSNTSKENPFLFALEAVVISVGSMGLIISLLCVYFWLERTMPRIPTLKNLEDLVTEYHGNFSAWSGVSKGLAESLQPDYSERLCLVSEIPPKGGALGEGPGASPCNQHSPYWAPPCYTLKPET
Put plainly: cell-based or functional assay.

B1: mouse interleukin-2 (mIL-2) (ligand, UniProt P04351 21-169, looked up)
chain: APTSSSTSSSTAEAQQQQQQQQQQQQHLEQLLMDLQELLSRMENYRNLKLPRMLTFKFYLPKQATELKDLQCLEDELGPLRHVLDLTQSKSFQLEDAENFISNIRVTVVKLKGSDNTFECQFDDESATVVDFLRRWIAFCQSIISTSPQ
notes: range 1-149; Baculovirus expression for SPR; also called MmIL-2; mouse IL-2
As to B1, the “EC50 (CD25+) pSTAT5, murine T (CTLL-2, CD25+) cells” value (“EC50 (CD25+) pSTAT5, murine T” below) in test [1] was 3 pM. In addition, the “EC50 (CD25-) pSTAT5p, human NK (YT, CD25-) cells” value (“EC50 (CD25-) pSTAT5p, human NK” for short) in test [2] is 39 nM.

B2: G2_neo2_40_1F_dsn36 (designed binder)
chain: PKKKIQLLAEHALLDALMILNIVKTNSQNAEEKLEDYASNVEVILEEIARLMESGDQKDEAEKAKRMKEWMKRIKTTASEDEQEEMANRIITLLQSWIFS
notes: E. coli, N-terminal 6xHis tag and thrombin site
For the molecule B2, the “EC50 (CD25+) pSTAT5, murine T” value in test [1] is 1.36 nM. Further, the “EC50 (CD25-) pSTAT5p, human NK” value in test [2] came to 0.12 nM.

B3: G1_neo2_40_1F (designed binder)
chain: STKKTQLLAEHALLDALMMLNLLPEPNEKLNRIITTMQSWIFTGKIDGDGAQELAKEVEELEQEHEKRGIDVEDYASNLKVILLELA
notes: also called G1_ne02_40_1F
As for B3, in test [1], the “EC50 (CD25+) pSTAT5, murine T” value came to 0.2 nM. For the same molecule, the “EC50 (CD25-) pSTAT5p, human NK” value in test [2] was 90 pM.
